According to patent US5811533, “High-affinity oligonucleotide ligands to vascular endothelial growth factor (VEGF)” (NeXstar Pharmaceuticals, Inc.):

B1: ssDNA b80 (ssDNA)
DNA: CTACCTACGATCTGACTAGCCCGTCGCGTGACTATAACCACACGCAGACTAGAGTGCAGGGCTTAGCTTACTCTCATGTAGTTCCT
B2: ssDNA b65 (ssDNA)
DNA: CTACCTACGATCTGACTAGCCGAGGTCCCCCACTGGATAGAGTTGTTGAAACAACGGTGCGCTTAGCTTACTCTCATGTAGTTCCT
B3: ssDNA b66 (ssDNA)
DNA: CTACCTACGATCTGACTAGCAACACTTCCCCACTGGATAGAGGCCTTTCGCAGAGCCGGTGCTTAGCTTACTCTCATGTAGTTCCT
B4: ssDNA 33 (ssDNA)
DNA: ATCCGCCTGATTAGCGATACTTCAAGCACTCCCGTCTTCCAGACAAGAGTGCAGGGCCTCTACTTGAGCAAAATCACCTGCAGGGG
B5: ssDNA b95 (ssDNA)
DNA: CTACCTACGATCTGACTAGCCCACTGCATAGAGAACTGGATCGACGGTCCAAAGTTCGGTGCTTAGCTTACTCTCATGTAGTTCCT
B6: ssDNA 10 (ssDNA)
DNA: ATCCGCCTGATTAGCGATACTGTACCATCCACGGTTTACGTGGACAAGAGGGCCCTGGTACACTTGAGCAAAATCACCTGCAGGGG
B7: ssDNA 15 (ssDNA)
DNA: ATCCGCCTGATTAGCGATACTACCGCTGTGTAGTTCCTTTAGGACTAGAGGGCCGCCTACACTTGAGCAAAATCACCTGCAGGGG
B8: ssDNA 23 (ssDNA)
DNA: ATCCGCCTGATTAGCGATACTGGGCATCTAACCCAGACCTACCGGAACGTTATCGCTTGTGACTTGAGCAAAATCACCTGCAGGGG
B9: ssDNA 6 (ssDNA)
DNA: ATCCGCCTGATTAGCGATACTATACACCCGGCGGGCCTACCGGATCGTTGATTTCTCTCCACTTGAGCAAAATCACCTGCAGGGG
B10: ssDNA b53 (ssDNA)
DNA: CTACCTACGATCTGACTAGCGCAAGGGCATCTCGGAATCGGTTAATCTGACTTGCAATACGCTTAGCTTACTCTCATGTAGTTCCT
B11: ssDNA b79 (ssDNA)
DNA: CTACCTACGATCTGACTAGCGAGGCATTAGGTCCGAATGGTAGTAATGCTGTCGTGCCTTGCTTAGCTTACTCTCATGTAGTTCCT
B12: ssDNA b56 (ssDNA)
DNA: CTACCTACGATCTGACTAGCGCAGGGCCACGTCTATTTAGACTAGAGTGCAGTGGTTCGCTTACTCTCATGTAGTTCCT

Each binder was assayed against VEGF165 (recombinant human vascular endothelial growth factor, 165 aa form) (Homo sapiens, UniProt P15692-4 P15692-4:27-191) (assay: filter). Settings: tags: gift from N. Ferrara, Genentech; chain copies: 2 (dimer, stated).
Sequence of VEGF165 (recombinant human vascular endothelial growth factor, 165 aa form) (P15692 other isoform, or with tags, fused parts or gaps): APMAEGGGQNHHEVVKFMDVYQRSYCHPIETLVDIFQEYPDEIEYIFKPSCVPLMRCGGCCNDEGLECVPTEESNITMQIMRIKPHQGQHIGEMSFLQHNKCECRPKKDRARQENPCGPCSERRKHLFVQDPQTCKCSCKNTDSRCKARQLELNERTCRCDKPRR
Work on B1 yielded a Kd of 8.1 nM.
In the case of GTAGTTCCTTTAGGACTAGAGGGCCGCCTAC (ssDNA) [15t], the Kd is reported as 3 nM.
Work on B2 yielded a Kd of 0.53 nM.
CGAGGTCCCCCACTGGATAGAGTTGTTGAAACAACGGTGCGCTTA (ssDNA) [65t] showed a Kd of 0.32 nM.
B3 showed a Kd of 1.3 nM.
Binder B4 has a Kd of 2 nM.
With B5 the Kd was 0.9 nM.
With GTACCATCCACGGTTTACGTGGACAAGAGGGCCCTGGTAC (ssDNA) [10t] the Kd was 5 nM.
Binder B6 has a Kd of 1 nM.
Work on B7 yielded a Kd of 0.88 nM.
For GGAGGTGCGTTGTCCGAAGGGGTCGTTAGTCACCTC (ssDNA) [85t], the Kd was 0.3 nM.
Work on B8 yielded a Kd of 0.75 nM.
In the case of B9, the Kd is reported as 1 nM.
B10 was tested, and the Kd was 2.5 nM.
B11 showed a Kd of 2 nM.
AGGGCCACGTCTATTTAGACTAGAGTGCAGTGGTTC (ssDNA) [56t] gave a Kd of 0.2 nM.
B12 gave a Kd of 0.5 nM.
With AACACTTCCCCACTGGATAGAGGCCTTTCGCAGAGCCGGTGCTTA (ssDNA) [66t] the Kd was 0.35 nM.
